B1: BBSome complex member BBS4 (Homo sapiens), Q96RK4 (parent)
chain: MAEERVATRTQFPVSTESQKPRQKKAPEFPILEKQNWLIHLHYIRKDYEACKAVIKEQLQETQGLCEYAIYVQALIFRLEGNIQESLELFQTCAVLSPQSADNLKQVARSLFLLGKHKAAIEVYNEAAKLNQKDWEISHNLGVCYIYLKQFNKAQDQLHNALNLNRHDLTYIMLGKIHLLEGDLDKAIEVYKKAVEFSPENTELLTTLGLLYLQLGIYQKAFEHLGNALTYDPTNYKAILAAGSMMQTHGDFDVALTKYRVVACAVPESPPLWNNIGMCFFGKKKYVAAISCLKRANYLAPFDWKILYNLGLVHLTMQQYASAFHFLSAAINFQPKMGELYMLLAVALTNLEDIENAKRAYAEAVHLDKCNPLVNLNYAVLLYNQGEKKNALAQYQEMEKKVSLLKDNSSLEFDSEMVEMAQKLGAALQVGEALVWTKPVKDPKSKHQTTSTSKPASFQQPLGSNQALGQAMSSAAAYRTLPSGAGGTSQFTKPPSLPLEPEPAVESSPTETSEQIREK
partner: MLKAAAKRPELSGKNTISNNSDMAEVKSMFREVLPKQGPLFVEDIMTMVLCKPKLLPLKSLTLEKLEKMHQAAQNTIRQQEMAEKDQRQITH

Variants of: B1
Conditions: with bbip1_human BBIP1, A8MTZ0

Variant | effect of a mutation on the interaction
N408E | with no effect
N408A | with no effect
N408K | with no effect
V402A | with no effect
V402E | with no effect
V402K | with no effect
D414A | with no effect
D414E | with no effect
D414K | with no effect
K400E | with no effect
K400A | with no effect
A391V | disrupting interaction strength
A391T | disrupting interaction strength
Y395A | with no effect
Y395E | with no effect
Y395H | disrupting interaction strength
Y395K | with no effect
Q396E | with no effect
Q396K | with no effect
Q396A | with no effect
E399A | with no effect
E399K | with no effect
A421E | with no effect

Variant | effect of a mutation on the interaction
A421K | with no effect
A421V | disrupting interaction strength
L404K | with no effect
L404E | with no effect
L404A | with no effect
S415K | with no effect
S415E | with no effect
S415A | with no effect
M398K | with no effect
M398E | with no effect
M398A | with no effect
E416K | with no effect
E416A | with no effect
L405E | with no effect
L405A | with no effect
L405K | with no effect
E397A | with no effect
E397K | with no effect
Q394A | with no effect
Q394L | disrupting interaction strength
Q394E | with no effect
Q394K | with no effect
Q394R | disrupting interaction strength

Variant | effect of a mutation on the interaction
S410K | with no effect
S410E | with no effect
S410A | with no effect
M420A | with no effect
M420K | with no effect
M420E | with no effect
S409E | with no effect
S409K | with no effect
S409A | with no effect
E412A | with no effect
E412K | with no effect
D407A | with no effect
D407E | with no effect
D407K | with no effect
K401V | disrupting interaction strength
K401A | with no effect
K401E | disrupting interaction strength
V418A | with no effect
V418K | with no effect
V418E | with no effect
S403K | with no effect
S403A | with no effect
S403E | with no effect

Variant | effect of a mutation on the interaction
E419K | with no effect
E419A | with no effect
F413E | with no effect
F413A | with no effect
F413K | with no effect
L411A | with no effect
L411E | with no effect
L411K | with no effect
Q422A | with no effect
Q422K | with no effect
Q422E | with no effect
K406E | with no effect
K406A | with no effect
M417A | with no effect
M417E | with no effect
M417K | with no effect
L392E | with no effect
L392K | with no effect
L392P | disrupting interaction strength
L392A | with no effect
